Specific Inh. Activity [TIU/mg IαIp] data for two substances are collected here from USRE47972.

This assay has as its target trypsin. The assay is described as follows: cell-based or functional assay.

Consider “Human IαIp (mixture of inter-alpha inhibitor IαI and pre-alpha inhibitor PαI) purified from cryoprecipitate, a side-fraction of fVIII production (from UniProt P02760 206-352; P19827 35-672; P19823 55-702; Q06033 35-651)”, for which the Specific Inh. Activity [TIU/mg IαIp] was found to be 1410 TIU/mg IαIp.

The substance “Highly purified human IαIp (mixture of inter-alpha inhibitor IαI and pre-alpha inhibitor PαI) purified from cryo-poor plasma (from UniProt P02760 206-352; P19827 35-672; P19823 55-702; Q06033 35-651)” had a Specific Inh. Activity [TIU/mg IαIp] of 1410 TIU/mg IαIp.
